Laboratory results taken from patent US20230024461A1, “METHODS FOR DUAL DNA/PROTEIN TAGGING OF OPEN CHROMATIN” (Beth Israel Deaconess Medical Center, Inc., priority 2019, published 2023).

B1: TP5: Tn5 transposase-GSGAGA linker-APEX2 peroxidase fusion, C-terminal FLAG; amino acid SEQ ID NO: 31 (protein)
chain: MITSALHRAADWAKSVFSSAALGDPRRTARLVNVAAQLAKYSGKSITISSEGSKAMQEGAYRFIRNPNVSAEAIRKAGAMQTVKLAQEFPELLAIEDTTSLSYRHQVAEELGKLGSIQDKSRGWWVHSVLLLEATTFRTVGLLHQEWWMRPDDPADADEKESGKWLAAAATSRLRMGSMMSNVIAVCDREADIHAYLQDKLAHNERFVVRSKHPRKDVESGLYLYDHLKNQPELGGYQISIPQKGVVDKRGKRKNRPARKASLSLRSGRITLKQGNITLNAVLAEEINPPKGETPLKWLLLTSEPVESLAQALRVIDIYTHRWRIEEFHKAWKTGAGAERQRMEEPDNLERMVSILSFVAVRLLQLRESFTPPQALRAQGLLKEAEHVESQSAETVLTPDECQLLGYLDKGKRKRKEKAGSLQWAYMAIARLGGFMDSKRTGIASWGALWEGWEALQSKLDGFLAAKDLMAQGIKIGSGAGAGKSYPTVSADYQDAVEKAKKKLRGFIAEKRCAPLMLRLAFHSAGTFDKGTKTGGPFGTIKHPAELAHSANNGLDIAVRLLEPLKAEFPILSYADFYQLAGVVAVEVTGGPKVPFHPGREDKPEPPPEGRLPDPTKGSDHLRDVFGKAMGLTDQDIVALSGGHTIGAAHKERSGFEGPWTSNPLIFDNSYFTELLSGEKEGLLQLPSDKALLSDPVFRPLVDKYAADEDAFFADYAEAHQKLSELGFADADYKDDDDK
modifications: C-terminal FLAG
B2: Tn5-F: FLAG-tagged Tn5 transposase purified in-house, negative control probe; amino acid SEQ ID NO: 19 (protein)
chain: MITSALHRAADWAKSVFSSAALGDPRRTARLVNVAAQLAKYSGKSITISSEGSKAMQEGAYRFIRNPNVSAEAIRKAGAMQTVKLAQEFPELLAIEDTTSLSYRHQVAEELGKLGSIQDKSRGWWVHSVLLLEATTFRTVGLLHQEWWMRPDDPADADEKESGKWLAAAATSRLRMGSMMSNVIAVCDREADIHAYLQDKLAHNERFVVRSKHPRKDVESGLYLYDHLKNQPELGGYQISIPQKGVVDKRGKRKNRPARKASLSLRSGRITLKQGNITLNAVLAEEINPPKGETPLKWLLLTSEPVESLAQALRVIDIYTHRWRIEEFHKAWKTGAGAERQRMEEPDNLERMVSILSFVAVRLLQLRESFTPPQALRAQGLLKEAEHVESQSAETVLTPDECQLLGYLDKGKRKRKEKAGSLQWAYMAIARLGGFMDSKRTGIASWGALWEGWEALQSKLDGFLAAKDLMAQGIKIDYKDDDDK
modifications: FLAG tag

Experiments:
GM12878 nuclei = test: Peroxidase-mediated biotin labeling after transposition, western blot; type: biochemical, human
Procedure: Western blot. Whole cell lysate was generated by resuspending cells washed with 1×PBS in RIPA (Boston BioProducts) supplemented with 1× complete EDTA-free protease inhibitor cocktail (Roche). Cells were subject to sonication via a Sonic Dismembrator 100 (Fisher Scientific) at setting 2, with 3 pulses of 15 seconds on/off on ice. Lysates were clarified by centrifugation (15,000×g, 30 minutes, 4° C.) and their concentrations quantified with detergent-compatible Bradford assay (Thermo Fisher Scientific). All Western blots were run on NuPAGE 4-12% Bis-Tris protein gels (Thermo Fisher Scientific) and transferred to […] nitrocellulose membranes (GE Healthcare). Membranes were stained with Ponceau S, blocked with 3% milk in PBS-T, and incubated overnight with primary antibody and subsequently with secondary antibody after brief washing with PBS-T. Chemiluminescence was determined by applying ECL Western Blotting detection reagent (GE Healthcare) to membranes and imaging on an Amersham Imager 600 (GE Healthcare). Membranes were stripped with Restore PLUS Stripping Buffer (Thermo Fisher Scientific); streptavidin-HRP was inactivated with 15% hydrogen peroxide. […]

K562 nuclei = test: iDAPT protein labeling, western blot of labeled nuclear lysates; type: biochemical, human
Procedure: (§1) DNA and protein tagging by iDAPT. All iDAPT proteomic labeling assays were performed as described below unless indicated otherwise. 2.5 μmol MEDS-A/B, 2 μmol enzyme, and 1 μmol hemin chloride per channel were incubated at room temperature for 1 hour. 1e7 cells per sample were washed (500×g, 5 minutes, 4° C.), lysed and triturated in 100 μL LB1 (10 mM Tris-HCl pH 7.5, 10 mM NaCl, 3 mM MgCl2, 1% BSA, 0.01% digitonin, 0.1% Tween-20, 0.1% NP-40, and 1× cOmplete EDTA-free protease inhibitor cocktail [Roche]) for 3 minutes, and subsequently supplemented with an additional 1 mL of LB2 (10 mM Tris-HCl pH 7.5, 10 mM NaCl, 3 mM MgCl2, 1% BSA, 0.1% Tween-20, and 1× protease inhibitor). Nuclei were pelleted (500×g, 10 minutes, 4° C.), resuspended with tagmentation reaction mixture (20% dimethylformamide, 10 mM MgCl2, 20 mM Tris-HCl pH 7.5, 33% 1×PBS, 1% BSA, 0.01% digitonin, 0.1% Tween-20, 500 μM biotin-phenol, 1× protease inhibitor, and 2 pmol enzyme equivalent of enzyme:DNA:heme complex in a total volume of 500 μL), and incubated at 37° C. for 30 minutes with agitation on a thermomixer (1,000 rpm). 5 μL of tagmentation mix was saved for quality assessment as described above for ATAC-seq/iDAPT-seq sample preparation. The remaining nuclear suspension was then washed 2× with 1×PBS supplemented with 500 μM biotin-phenol, 1% BSA, 0.1% Tween-20, and 1× protease inhibitor (3000×g, 5 minutes, 4° C.) and labeled with 1 mM hydrogen peroxide and 500 μM biotin-phenol for 1 minute in 1×PBS with 1× protease inhibitor in a volume of 500 μL. Peroxidation reactions were quenched with 500 μL 2× quenching buffer (10 mM Trolox, 20 mM sodium ascorbate, 20 mM NaN3, and 1× protease inhibitor in 1×PBS). Labeled nuclei were then pelleted, washed with 1× quenching buffer, resuspended in 500 μL RIPA containing protease inhibitors, and frozen at −80° C. Lysates were thawed on ice, sonicated via a Sonic Dismembrator 100 (Fisher Scientific, setting 3, 15 seconds, 4 pulses), and incubated on ice for 30 minutes after the addition of 1 μL benzonase (EMD Millipore). Lysates were clarified by centrifugation (15,000×g, 20 minutes, 4° C.), quantified via the detergent-compatible Bradford assay (Thermo Fisher Scientific), and subjected to either Western blotting or quantitative mass spectrometry analyses as described below. For NB4 cell analysis, an additional endogenous peroxidase blocking step was added after nuclear extraction and before tagmentation: nuclei were resuspended in 500 μL 1×PBS containing 1% BSA, 0.03% hydrogen peroxide, and 0.1% NaN3 and incubated on ice for 30 minutes. Nuclei were pelleted and washed 4× with 1×PBS/1% BSA (3000×g, 5 minutes, 4° C.). Residual hydrogen peroxide was monitored by colorimetric assessment of supernatant via Quantofix peroxides test stick (Sigma).
(§2) Western blotting analysis. Whole cell or nuclear lysates were generated by resuspending cells or nuclei in RIPA (Boston BioProducts) supplemented with 1× cOmplete EDTA-free protease inhibitor cocktail (Roche). […] Lysates were clarified by centrifugation (15,000×g, 20 minutes, 4° C.) and their concentrations quantified via the detergent-compatible Bradford assay (Thermo Fisher Scientific). […] Membranes were blocked with 3% milk in PBS-T and incubated overnight with primary antibody and subsequently with secondary antibody after brief washing with PBS-T. Chemiluminescence was determined by applying ECL Western Blotting detection reagent (GE Healthcare) to membranes and imaging on an Amersham Imager 600 (GE Healthcare). […]

HT1080 cells = test: Co-immunofluorescence/ATAC-see analysis; type: cell-based, human
Procedure: Co-immunofluorescence/ATAC-see analysis. ATAC-see was performed similarly as previously described with slight modifications (Chen et al., Nat. Methods 13:1013-1020, 2016). Enzyme and transposon DNA were mixed at a 1:1.25 enzyme:MEDS-A/B-AF647 molar ratio and incubated at room temperature for 1 hour. Adherent cells were grown on glass coverslips (Fisher Scientific, 12-540A) until 80-90% confluent, washed with 1×PBS, fixed with 1% formaldehyde (Electron Microscopy Services) in 1×PBS for 10 minutes, and washed twice with ice-cold 1×PBS. Suspension cells were washed and resuspended with 1×PBS. 50,000 cells were added to poly-lysine slides and incubated at room temperature for 1 hour in a humidified chamber. An equal volume of 2% formaldehyde was added and incubated for 10 minutes, whereupon slides were washed twice with ice-cold 1×PBS. Immobilized cells were lysed by incubation with LB1 for 3 minutes followed by LB2 for 10 minutes at room temperature. Cells were then subject to tagmentation (20% dimethylformamide, 10 mM MgCl2, 20 mM Tris-HCl pH 7.5, 33% 1×PBS, 0.01% digitonin, 0.1% Tween-20, and either 80 pmol enzyme equivalent of enzyme:DNA complex in a total volume of 100 μL for adherent cells or 10 pmol enzyme equivalent of enzyme:DNA complex in a total volume of 50 μL for suspension cells) for 30 minutes at 37° C. in a humidified chamber. Subsequently, cells were washed with 50 mM EDTA and 0.01% SDS in 1×PBS three times for 15 minute each at 55° C., lysed for 10 minutes with 0.5% Triton X-100 in 1×PBS at room temperature, and blocked with 1% BSA and 10% goat serum in PBS-T for 1 hour in a humidified chamber. Primary antibody was added to slides in 1% BSA/PBS-T and incubated at 4° C. overnight; slides were then washed and subjected to secondary antibody staining for 1 hour. Slides were washed with PBS-T three times for 15 minutes each, stained with DAPI (Sigma, 1 μg/mL) for 1 minute, washed with PBS for 10 minutes, and mounted with Fluorescence Mounting Medium (Dako). Confocal microscopy images were taken with an LSM 880 Axio Imager 2 at 63× magnification (Zeiss). Images were processed with Fiji/ImageJ v2.0.0.
Primary antibodies used were anti-RNA polymerase II CTD repeat YSPTSPS (phospho S2) (rabbit, Abcam ab5095, 1:500), anti-H3K27Ac (rabbit, Abcam ab4729, 1:500), anti-H3K9me3 (rabbit, Abcam ab8898, 1:500), anti-CCDCl2 (rabbit, Atlas Antibodies HPA060530, 1:200), anti-SNRPA (mouse, 3F9-1F7, Sigma-Aldrich WH0006626M1, 1:100). […]
Quantitative image analyses were performed with CellProfiler v3.1.5. […] Pearson correlation coefficients were determined by comparing ATAC-see pixel intensities with corresponding immunofluorescence intensity values within each ROI to assess the nucleus-to-nucleus variation in colocalization. […]

HEK293T nuclei = test: iDAPT protein labeling, western blot of labeled nuclear lysates; type: biochemical, human; conditions: extracted HEK293T nuclei
Procedure: as §1, §2

| Molecule | biotinylation signal (streptavidin) (GM12878 nuclei) | biotin labeling (K562 nuclei) | ATAC-see correlation with H3K9me3 immunofluorescence (HT1080 cells; marker of transcriptionally inactive chromatin) | ATAC-see correlation with H3K27Ac and RNAPII S2P immunofluorescence signal (HT1080 cells; markers of transcriptionally active chromatin) | peroxidase-dependent biotin signal (HEK293T nuclei) |
| --- | --- | --- | --- | --- | --- |
| B1 | highest signals | highest levels of labeling | – | – | – |
| B2 | – | – | similarly poor correlations | similarly positive correlations | low signal |
